Source: the PETadex activity labels (doi:10.1038/s41467-023-40233-w)
Positions count from the first letter of the chain named.

Substrate: pcPET (post-consumer)
Assay: Proxy for plastic degradation [Released monomer concentration (HPLC/LC-MS) (TPA+MHET+BHET)]
Conditions: pH 9

B1: unnamed (protein)
chain: MLSFLRSTGRPERRRASLPALLLFTAALVASGLTAAPAAQAADNPYQRGPDPTNASIEAATGPFAVGTQPIVGASGFGGGQIYYPTDTSQTYGAVVIVPGFISVWAQLNWLGPRLASQGFVVIGIETSVITDLPDPRGDQALAALDWATTRSPVASRIDRTRLAAAGWSMGGGGLRRAALQRPSLKAIVGMAPWNGERNWSAVTVPTLFFGGSSDAVASPNDHAKPFYNSITRAEKDYIELRNADHFFPTSANTTMAKYFISWLKRWVDNDTRYRQFLCPGPSTGLFAPVSASMNTCPF
Proxy for plastic degradation (40 °C, 24 h): 270 µM

B2: unnamed (protein)
chain: B1 chain with R275T
Proxy for plastic degradation (60 °C, 6 h): 60 µM

B3: unnamed (protein)
chain: B1 chain with A155R, R275T
Proxy for plastic degradation (40 °C, 24 h): 870 µM
